Experiment [1] addresses T1, human MN protein, entire extra-cellular domain with a C-terminal histag, expressed in HKB-11 cells (human, UniProt Q16790 38-414). Kind of experiment: BIAcore surface plasmon resonance; Fab captured on immobilized anti-human-Fab IgG, purified human MN (HKB-11) as analyte; 1:1 Langmuir fit. A general note: SPR reads the build-up and loss of mass on a sensor chip optically.

The target of experiment [2] is T2, MN protein on the surface of MN-expressing (MN+) cells (PC3 mm2, MaTu) (human, UniProt Q16790 38-459). Kind of experiment: FACS on PC3mm2 (MN+) cells with DLD (MN-) cells as negative cells; traces not labelled on the sheet.
Experiment [3] deals with T1, human MN protein, entire extra-cellular …. Put plainly: BIAcore surface plasmon resonance; IgG captured on immobilized goat anti-human IgG Fc, purified human MN (HKB-11) as analyte; 1:1 Langmuir fit.
For experiment [4] the target is unchanged. Put plainly: SPR, BIAcore 3000, IgG captured by anti-human IgG Fc, MN as analyte, 1:1 Langmuir fit.
In experiment [5] the target is T2, MN protein on the surface of …. Put plainly: cell-based or functional assay.
Experiment [6] concerns the target T1, human MN protein, entire extra-cellular …. Kind of experiment: Biacore (SPR), purified MN protein.
The target is the same in experiment [7]. Kind of experiment: Biacore (SPR), purified MN protein. This is another data set of the same source.

15 molecules from US20120301468A1 (Bayer, published 2012) can be followed below.

B1: 3bb2 Fab (Fab, V domains shown)
VH: ELVESGGGLVQPGGSLRLSCAASGFTFSNYGISWVRQAPGKGLEWVSAISYYGSNTYYADSVKGRFTISRDNSKNTLYLQMNSLRAEDTAVYYCARLKGGSGFVWGQGTLVTVSS
VL: DIVMTQSPLSLPVTPGEPASISCRSSQSLVYSNGNTTLSWYLQKPGQSPQLLIYGVSNRASGVPDRFSGSGSGTDFTLKISRVEAEDVGVYYCQQYNSFPRTFGQGTKVEIK
notes: Only CDRs are tied to the name
For B1, the Kd in experiment [1] was found to be 27 nM.

B2: 3ab4 Fab (Fab, V domains shown)
VH: ELVESGGGLVQPGGSLRLSCAASGFTFSSYGISWVRQAPGKGLEWVSGISYSGSSTYYADSVKGRFTISRDNSKNTLYLQMNSLRAEDTAVYYCARLKPYRHKNGWFDYWGQGTLVTVSS
VL: DIQMTQSPSSLSASVGDRVTITCRASQNISNYLNWYQQKPGKAPKLLIHKVSNLQSGVPSRFSGSGSGTDFTLTISSLQPEDFAVYYCLQYDDFPRTFGQGTKVEIK
notes: as for B1
B2 registered a Kd in experiment [1] of 50 nM.

B3: 1aa1 Fab (Fab, V domains shown)
VH: ELVQSGAEVKKPGASVKVSCKASGYTFTTNYMHWVRQAPGQGLEWMGIINPHNGSTSYAQKFQGRVTMTRDTSISTAYMELSSLRSEDTAVYYCARGRYFLMDVWGQGTLVTVSS
VL: DIQMTQSPSSLSASVGDRVTITCRASQNILSYLNWYQQKPGKAPKLLIYAASSLQSGVPSRFSGSGSGTDFTLTISSLQPEDFAVYYCQQYGSVPTFGQGTKVEIK
notes: as for B1
Turning to B3, the Kd in experiment [1] worked out at 0.15 nM.

B4: 1aa1 immunoconjugate (antibody, human IgG1, V domains shown)
VH: QVELVQSGAEVKKPGASVKVSCKASGYTFTTNYMHWVRQAPGQGLEWMGIINPHNGSTSYAQKFQGRVTMTRDTSISTAYMELSSLRSEDTAVYYCARGRYFLMDVWGQGTLVTVSS
VL: DIQMTQSPSSLSASVGDRVTITCRASQNILSYLNWYQQKPGKAPKLLIYAASSLQSGVPSRFSGSGSGTDFTLTISSLQPEDFAVYYCQQYGSVPTFGQGTKVEIK
modifications: A cytotoxic drug (MMAE by paragraph 261) is conjugated to the IgG1. The chain and residues of attachment are not stated, and the letters do not carry the drug.
notes: Human IgG1 1aa1 conjugated to a cytotoxic drug; Only CDRs are tied to the name
For the molecule B4, the binding result in experiment [2] is listed as “binds”.

B5: 1aa1 full-length human IgG1 (antibody, V domains shown)
VH: QVELVQSGAEVKKPGASVKVSCKASGYTFTTNYMHWVRQAPGQGLEWMGIINPHNGSTSYAQKFQGRVTMTRDTSISTAYMELSSLRSEDTAVYYCARGRYFLMDVWGQGTLVTVSS
VL: DIQMTQSPSSLSASVGDRVTITCRASQNILSYLNWYQQKPGKAPKLLIYAASSLQSGVPSRFSGSGSGTDFTLTISSLQPEDFAVYYCQQYGSVPTFGQGTKVEIK
notes: Full-length human IgG1 made from the Fab; Only CDRs are tied to the name
In the case of B5, the Kd in experiment [3] turned out to be 49 nM; in experiment [4], 27 nM.

B6: 3ee9 Fab (Fab, V domains shown)
VH: ELVESGGGLVQPGGSLRLSCAASGFTFSSYGMSWVRQAPGKGLEWVSGISSLGSTTYYADSVKGRFTISRDNSKNTLYLQMNSLRAEDTAVYYCARTGSPGTFMHGDHWGQGTLVTVSS
VL: DIQMTQSPSSLSASVGDRVTITCRASQDINNYLSWYQQKPGKAPKLLIYGASNLQSGVPSRFSGSGSGTDFTLTISSLQPEDFAVYYCQQYYGRPTTFGQGTKVEIK
notes: only the CDRs are tied
On to B6, for which the Kd in experiment [1] turned out to be 16 nM.

B7: 3ef2 Fab (Fab, V domains shown)
VH: ELVESGGGLVQPGGSLRLSCAASGFTFSSYGMHWVRQAPGKGLEYVSAISYSSSSTSYADSVKGRFTISRDNSKNTLYLQMNSLRAEDTAVYYCARLSYTGFAVWGQGTLVTVSS
VL: DIELTQPPSVSVAPGQTARISCSGDNLGSYYVHWYQQKPGQAPVLVIYDDNNRPSGIPERFSGSNSGNTATLTISGTQAEDEADYYCQSYDFGKVVFGGGTKLTVL
notes: as for B1
Regarding B7, in experiment [1], binding was put at a Kd of 4.1 nM.

B8: 3ef2 full-length human IgG1 (antibody, V domains shown)
VH: QVELVESGGGLVQPGGSLRLSCAASGFTFSSYGMHWVRQAPGKGLEYVSAISYSSSSTSYADSVKGRFTISRDNSKNTLYLQMNSLRAEDTAVYYCARLSYTGFAVWGQGTLVTVSS
VL: DIELTQPPSVSVAPGQTARISCSGDNLGSYYVHWYQQKPGQAPVLVIYDDNNRPSGIPERFSGSNSGNTATLTISGTQAEDEADYYCQSYDFGKVVFGGGTKLTVL
notes: as for B5
Regarding B8, in experiment [4], the Kd was found to be 6 nM.

B9: 1e4 Fab (Fab, V domains shown)
VH: ELVESGGGLVQPGGSLRLSCAASGFTFSNNAMNWVRQAPGKGLEWVSGISYDSSKTYYADSVKGRFTISRDNSKNTLYLQMNSLRAEDTAVYYCARLTYTGAYRWGQGTLVTVSS
VL: DIELTQPPSVSVAPGQTARISCSGDNLGSYYVHWYQQKPGQAPVLVIYDDNNRPSGIPERFSGSNSGNTATLTISGTQAEDEADYYCQSYDFGKVVFGGGTKLTVL
notes: as for B1
Turning to B9, the Kd in experiment [1] was determined as 1.4 nM.

B10: 1e4 full-length human IgG1 (antibody, V domains shown)
VH: ELVESGGGLVQPGGSLRLSCAASGFTFSNNAMNWVRQAPGKGLEWVSGISYDSSKTYYADSVKGRFTISRDNSKNTLYLQMNSLRAEDTAVYYCARLTYTGAYRWGQGTLVTVSS
VL: DIELTQPPSVSVAPGQTARISCSGDNLGSYYVHWYQQKPGQAPVLVIYDDNNRPSGIPERFSGSNSGNTATLTISGTQAEDEADYYCQSYDFGKVVFGGGTKLTVL
notes: Full-length human IgG1 made from the Fab (IgG1 constant region PIR J00228); Only CDRs are tied to the name; also called monoclonal IgG1 1e4; anti-MN antibody 1e4
As for B10, the Kd in experiment [3] stood at 1 nM; in experiment [4] it was 5 nM.

B11: 5a6 Fab (Fab, V domains shown)
VH: ELVQSGAEVKKPGESLKISCKGSGYSFSKYWIGWVRQMPGKGLEWMGIIYPTDSYTRYSPSFQGQVTISADKSISTAYLQWSSLKASDTAMYYCARTHGYYKNGRMDVWGQGTLVTVSS
VL: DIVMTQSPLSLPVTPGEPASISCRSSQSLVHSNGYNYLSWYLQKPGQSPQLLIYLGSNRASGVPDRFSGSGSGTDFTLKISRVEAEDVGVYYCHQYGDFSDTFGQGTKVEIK
notes: as for B1
Take B11: in experiment [1], the dissociation constant (Kd) came out at 3.4 nM.

B12: 3ee9/MMAE (3ee9 human IgG1 conjugated to monomethylauristatin E) (antibody, V domains shown)
VH: QVELVESGGGLVQPGGSLRLSCAASGFTFSSYGMSWVRQAPGKGLEWVSGISSLGSTTYYADSVKGRFTISRDNSKNTLYLQMNSLRAEDTAVYYCARTGSPGTFMHGDHWGQGTLVTVSS
VL: DIQMTQSPSSLSASVGDRVTITCRASQDINNYLSWYQQKPGKAPKLLIYGASNLQSGVPSRFSGSGSGTDFTLTISSLQPEDFAVYYCQQYYGRPTTFGQGTKVEIKR
modifications: Monomethylauristatin E (MMAE) is conjugated to the antibody through a linker (FIG. 9). The chain and residues of attachment are not stated, and the letters do not carry the drug.
notes: Only CDRs are tied to the name; also called BAY 79-4620; 3ee9-IC
With B12, the “Cytotoxicity: MN+/MN- (ec50)” value in experiment [5] amounted to 50 nM. The molecule further registered a Kd in experiment [6] of 3.6 nM.

B13: 3ee9 full-length human IgG1 (antibody, V domains shown)
VH: QVELVESGGGLVQPGGSLRLSCAASGFTFSSYGMSWVRQAPGKGLEWVSGISSLGSTTYYADSVKGRFTISRDNSKNTLYLQMNSLRAEDTAVYYCARTGSPGTFMHGDHWGQGTLVTVSS
VL: DIQMTQSPSSLSASVGDRVTITCRASQDINNYLSWYQQKPGKAPKLLIYGASNLQSGVPSRFSGSGSGTDFTLTISSLQPEDFAVYYCQQYYGRPTTFGQGTKVEIKR
notes: Only CDRs are tied to the name; also called unconjugated antibody 3ee9; antibody portion of 3ee9/MMAE
For the molecule B13, the Kd was 5.9 nM in experiment [3], 3.6 nM in experiment [7] and 4 nM in experiment [4].

B14: 5aa3 full-length human IgG1 (antibody, V domains shown)
VH: QVELVQSGAEVKKPGESLKISCKGSGYSFTGYISWVRQAPGKGLEWMGIIYPGDSYTNYSPSFQGQVTISADKSISTAYLQWSSLKASDTAMYYCARYSGPNWDVMDSWGQGTLVTVSS
VL: DIVLTQPPSVSGAPGQRVTISCSGSSSNIGSYYVNWYQQLPGTAPKLLIYADDKRPSGVPDRFSGSKSGTSASLAITGLQSEDEADYYCQSYDSTKDDSVFGGGTKLTVL
notes: as for B5
With B14, the affinity in experiment [4], expressed as Kd, was 1 nM.

B15: 3ah10 Fab (Fab, V domains shown)
VH: ELVESGGGLVQPGGSLRLSCAASGFTFSSYGISWVRQAPGKGLEWVSSISYSGSNTYYADSVKGRFTISRDNSKNTLYLQMNSLRAEDTAVYYCARMKPMRGYSGAVWGQGTLVTVSS
VL: DIQMTQSPSSLSASVGDRVTITCRASQDISNRLAWYQQKPGKAPKLLIYDANSLQSGVPSRFSGSGSGTDFTLTISSLQPEDFATYYCFQYSGPTFGQGTKVEIK
notes: as for B1
For B15, the Kd in experiment [1] came to 16 nM.

As usually defined, the Kd is the equilibrium constant for the complex coming apart. Low readings indicate higher affinity, high ones lower affinity.
